Measured values from US20260124303A1 (MINK THERAPEUTICS, published 2026).

T1: human FAP (fibroblast activation protein) (human, UniProt Q12884 26-760, limits assumed)
T1 construct: Protein immobilised on the CM5 chip or premixed with Fab in SPR; also called huFAP; hFAP
T1 sequence: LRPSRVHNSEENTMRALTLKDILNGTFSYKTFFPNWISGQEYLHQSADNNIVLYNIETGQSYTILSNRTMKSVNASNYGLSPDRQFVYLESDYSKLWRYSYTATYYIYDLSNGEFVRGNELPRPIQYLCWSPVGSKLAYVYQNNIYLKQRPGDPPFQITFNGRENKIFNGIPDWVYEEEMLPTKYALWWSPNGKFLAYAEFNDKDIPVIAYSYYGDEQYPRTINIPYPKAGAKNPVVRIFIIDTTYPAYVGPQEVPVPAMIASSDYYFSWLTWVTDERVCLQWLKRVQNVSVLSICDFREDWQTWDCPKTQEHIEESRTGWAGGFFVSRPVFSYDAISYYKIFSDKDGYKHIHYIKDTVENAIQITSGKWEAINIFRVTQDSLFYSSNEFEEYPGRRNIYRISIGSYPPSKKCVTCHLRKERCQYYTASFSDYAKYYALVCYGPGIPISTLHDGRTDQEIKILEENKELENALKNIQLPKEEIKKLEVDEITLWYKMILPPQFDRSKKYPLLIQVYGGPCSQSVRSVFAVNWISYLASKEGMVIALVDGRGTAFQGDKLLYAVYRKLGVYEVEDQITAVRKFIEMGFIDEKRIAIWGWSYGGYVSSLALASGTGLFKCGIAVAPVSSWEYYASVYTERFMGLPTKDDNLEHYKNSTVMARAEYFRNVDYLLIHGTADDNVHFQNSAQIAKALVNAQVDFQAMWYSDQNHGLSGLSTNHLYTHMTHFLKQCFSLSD

T2: mouse FAP (mouse, UniProt P97321 26-761, limits assumed)
T2 construct: Protein immobilised on the CM5 chip in SPR
T2 sequence (looked up): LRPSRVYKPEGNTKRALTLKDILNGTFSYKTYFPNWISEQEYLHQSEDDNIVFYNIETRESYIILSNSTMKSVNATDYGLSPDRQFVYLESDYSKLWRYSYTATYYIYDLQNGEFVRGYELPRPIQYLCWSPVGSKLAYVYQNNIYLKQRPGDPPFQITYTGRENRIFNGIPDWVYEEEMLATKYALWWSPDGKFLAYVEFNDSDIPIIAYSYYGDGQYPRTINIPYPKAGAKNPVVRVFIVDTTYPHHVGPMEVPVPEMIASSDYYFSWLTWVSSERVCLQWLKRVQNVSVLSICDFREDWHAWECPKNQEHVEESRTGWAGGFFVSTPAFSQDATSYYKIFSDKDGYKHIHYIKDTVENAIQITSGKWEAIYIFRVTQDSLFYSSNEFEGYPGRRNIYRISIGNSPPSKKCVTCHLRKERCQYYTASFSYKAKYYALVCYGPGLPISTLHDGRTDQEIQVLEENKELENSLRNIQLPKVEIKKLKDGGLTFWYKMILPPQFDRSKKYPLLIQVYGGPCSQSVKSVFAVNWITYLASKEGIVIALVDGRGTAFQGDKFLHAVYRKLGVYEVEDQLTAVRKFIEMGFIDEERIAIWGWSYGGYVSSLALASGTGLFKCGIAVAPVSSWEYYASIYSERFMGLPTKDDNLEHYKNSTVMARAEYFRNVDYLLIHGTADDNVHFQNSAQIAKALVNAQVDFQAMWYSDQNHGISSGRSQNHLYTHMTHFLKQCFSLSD

B1: E07 IgG (antibody, V domains shown)
VH: EVQLLESGGGLVQPGGSLRLSCAASGFTFKSYVMSWVRQAPGKGLEWVSAIVPSGGDTYYADSVKGRFTISRDNSKNTLYLQMNSLRAEDTAVYYCAKDYYGGWFDPWGQGTLVTVSS
VL: not shown
B2: A07 Fab (Fab, V domains shown)
VH: QVQLVQSGAEVKKPGSSVKVSCKASGGTFSSYAISWVRQAPGQGLEWMGGIIPIFGTANYAQKFQGRVTITADESTSTAYMELSSLRSEDTAVYYCASPRDCSSTSCYAGIDAFDIWGQGTMVTVSS
VL: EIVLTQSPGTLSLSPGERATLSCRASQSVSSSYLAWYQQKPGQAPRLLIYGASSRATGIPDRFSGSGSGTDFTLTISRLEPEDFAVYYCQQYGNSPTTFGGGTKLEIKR

How the values were obtained:
[1] = biological target: T3, human DPP4 (human, UniProt P27487 1-766); assay: IgG staining of HEK cells transiently expressing the construct
T3 construct: whole, on cells; Transiently expressed in HEK cells; also called hDPP4; dipeptidyl peptidase IV
Description: The constructs were designed on the DPP4 backbone and different FAP fragments were introduced to replace the corresponding DPP4 fragment as shown in FIG. 13D. BFP was used as a marker of transfection and His-tag to confirm expression.
The constructs were transiently expressed in HEK cells and the different IgGs were used to stain the cells.

[2] = biological target: T1, human FAP (fibroblast activation …); assay: SPR (Biacore), human FAP immobilised on CM5 chip by amine coupling, Fab as analyte, 2-fold dilution series from 500 nM
Experimental: (§1) 2.5 μg/mL human FAP was immobilized to flow cells 1-4 on CM5 chip by amine coupling. […] 5 μg/mL mouse FAP was immobilized to flow cells 5-8 on CM5 chip by amine coupling. […] Regeneration was done with 2.5 mM NaOH, 1M NaCl.

[3] = biological target: T2, mouse FAP; assay: SPR (Biacore), mouse FAP immobilised on CM5 chip by amine coupling, Fab as analyte, 2-fold dilution series from 500 nM
Experimental: as §1

T3 sequence (P27487 whole entry): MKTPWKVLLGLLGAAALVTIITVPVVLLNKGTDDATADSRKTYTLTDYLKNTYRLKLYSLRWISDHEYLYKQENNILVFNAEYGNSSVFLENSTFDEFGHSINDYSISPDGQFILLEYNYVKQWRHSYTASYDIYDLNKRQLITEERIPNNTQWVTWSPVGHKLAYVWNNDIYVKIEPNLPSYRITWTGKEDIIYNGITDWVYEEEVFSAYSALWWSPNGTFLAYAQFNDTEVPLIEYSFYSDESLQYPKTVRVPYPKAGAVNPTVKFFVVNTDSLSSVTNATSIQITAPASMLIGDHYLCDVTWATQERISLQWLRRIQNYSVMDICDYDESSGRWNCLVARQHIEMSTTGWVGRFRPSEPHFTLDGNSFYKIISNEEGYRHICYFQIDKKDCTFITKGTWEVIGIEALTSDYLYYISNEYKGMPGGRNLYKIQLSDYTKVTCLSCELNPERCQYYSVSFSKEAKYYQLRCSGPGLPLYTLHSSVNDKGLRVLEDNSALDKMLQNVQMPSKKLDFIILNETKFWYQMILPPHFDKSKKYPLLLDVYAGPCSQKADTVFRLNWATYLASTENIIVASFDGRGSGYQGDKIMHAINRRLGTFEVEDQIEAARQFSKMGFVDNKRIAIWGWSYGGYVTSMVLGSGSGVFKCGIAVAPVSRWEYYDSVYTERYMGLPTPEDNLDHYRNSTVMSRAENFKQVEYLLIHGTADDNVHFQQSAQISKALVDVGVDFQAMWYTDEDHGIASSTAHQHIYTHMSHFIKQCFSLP

| Binder | binding result [1] | Kd [2] | Kd [3] |
| --- | --- | --- | --- |
| B1 | no binding |  |  |
| B2 |  | 757 nM | 330 nM |
